Reference: patent publication US20220324959A1 (Janssen / Centocor, published 2022)

B1: TNV148 (antibody, human IgG1, kappa, V domains shown)
VH: QVQLVESGGGVVQPGRSLRLSCAASGFIFSSYAMHWVRQAPGNGLEWVAFMSYDGSNKKYADSVKGRFTISRDNPKNTLYLQMNSLRAEDTAVYYCARDRGIAAGGNYYYYGMDVWGQGTTVTVSS
VL: EIVLTQSPATLSLSPGERATLSCRASQSVYSYLAWYQQKPGQAPRLLIYDASNRATGIPARFSGSGSGTDFTLTISSLEPEDFAVYYCQQRSNWPPFTFGPGTKVDIKR
notes: Hybridoma-derived fully human IgG1 kappa, tested as hybridoma supernatant; also called GenTNV148.26.12; C420A
B2: TNV86 (antibody, human IgG1, kappa, V domains shown)
VH: B1 VH
VL: B1 VL
notes: Hybridoma-derived fully human IgG1 kappa, tested as hybridoma supernatant; Identity is stated for the variable regions only; also called GenTNV86.14.34; C417A

What was measured:
[1] = target: T1, recombinant human TNFα (human, UniProt P01375 77-233, 125I label in the receptor blocking assay); experiment: cell-based or functional assay
[2] = target: T1, recombinant human TNFα; experiment: inhibition of 125I-TNFα binding to plate-coated p55-sf2, hybridoma supernatant
Method: (§1) 50:1 of p55-sf2 at 0.5:g/ml in PBS was added to Optiplates to coat the wells during a one-hour incubation at 37° C. Serial dilutions of the eight TNV cell supernatants were prepared in 96-well round-bottom plates using PBS/0.1% BSA as diluent. […] The mixture was preincubated for one hour at RT. The coated Optiplates were washed to remove unbound p55-sf2 and 50:1 of the ¹²⁵I-TNFα/cell supernatant mixture was transferred to the Optiplates. After 2 hrs at RT, Optiplates were washed three times with PBS-Tween. […] of Microscint-20 was added and the cpm bound determined using the TopCount gamma counter.
A simple binding assay was done to determine whether the eight TNV mAbs contained in hybridoma cell supernatant were capable of blocking TNFα binding to receptor. The concentrations of the TNV mAbs in their respective cell supernatants were first determined by standard ELISA analysis for human IgG.

[3] = target: T1, recombinant human TNFα; experiment: competition radioligand assay: mAb in hybridoma supernatant preincubated with 5 ng/ml 125I-TNFα, then binding of 125I-TNFα to plate-coated p55-sf2 (TNF receptor/IgG fusion) counted as cpm bound
Method: Varying amounts of hybridoma cell supernatants containing known amounts of TNV mAb were preincubated with a fixed concentration (5 ng/ml) of ¹²⁵I-labeled TNFα. […] The amount of TNFα that bound to the p55 receptor in the presence of the mAbs was determined after washing away the unbound material and counting using a gamma counter. Although eight TNV mAb samples were tested in these experiments, for simplicity three of the mAbs that were shown by DNA sequence analyses to be identical to one of the other TNV mAbs (see Section 5.2.2) are not shown here. Each sample was tested in duplicate. The results shown are representative of two independent experiments.
as §1

Binder	neutralizing TNFα bioactivity [1] [fold]	fold better at blocking TNF binding (against TNV118 and TNV14) [2] [fold]	IC50 (read off the curve) [3] [ng/mL]
B1	4	~4	~4
B2	–	~4	–
